Assay results published in patent US20140128320A1 (TRUSTEES OF COLUMBIA UNIVERSITY IN THE CITY OF NEW YORK, published 2014).

Target: T1, insulin receptor (InsR) expressed in ROS17/2.8 osteoblast cells (rat (by the cell line;  for …, UniProt P15127 27-1383, limits assumed)
T1 construct: The species is inferred from the cell line only; also called insulin receptor in ROS cells
Assay: GST pull-down (substrate trapping) from ROS17/2.8 cell lysate, western blot
Procedure: Recombinant proteins bound to Sepharose beads for 1 hour at 4° C. (insulin receptor trapping) or for 2 h at 4° C. […] Precipitates were collected, washed four times with lysis buffer and resolved on SDS-PAGE, followed by western blotting. Insulin receptor (InsR) was detected using rabbit anti-insulin receptor antibodies (Santa-Cruz, C-19) and GST was detected by mouse anti-GST antibodies (Santa-Cruz).

T1 sequence (P15127 27-1383 limits assumed): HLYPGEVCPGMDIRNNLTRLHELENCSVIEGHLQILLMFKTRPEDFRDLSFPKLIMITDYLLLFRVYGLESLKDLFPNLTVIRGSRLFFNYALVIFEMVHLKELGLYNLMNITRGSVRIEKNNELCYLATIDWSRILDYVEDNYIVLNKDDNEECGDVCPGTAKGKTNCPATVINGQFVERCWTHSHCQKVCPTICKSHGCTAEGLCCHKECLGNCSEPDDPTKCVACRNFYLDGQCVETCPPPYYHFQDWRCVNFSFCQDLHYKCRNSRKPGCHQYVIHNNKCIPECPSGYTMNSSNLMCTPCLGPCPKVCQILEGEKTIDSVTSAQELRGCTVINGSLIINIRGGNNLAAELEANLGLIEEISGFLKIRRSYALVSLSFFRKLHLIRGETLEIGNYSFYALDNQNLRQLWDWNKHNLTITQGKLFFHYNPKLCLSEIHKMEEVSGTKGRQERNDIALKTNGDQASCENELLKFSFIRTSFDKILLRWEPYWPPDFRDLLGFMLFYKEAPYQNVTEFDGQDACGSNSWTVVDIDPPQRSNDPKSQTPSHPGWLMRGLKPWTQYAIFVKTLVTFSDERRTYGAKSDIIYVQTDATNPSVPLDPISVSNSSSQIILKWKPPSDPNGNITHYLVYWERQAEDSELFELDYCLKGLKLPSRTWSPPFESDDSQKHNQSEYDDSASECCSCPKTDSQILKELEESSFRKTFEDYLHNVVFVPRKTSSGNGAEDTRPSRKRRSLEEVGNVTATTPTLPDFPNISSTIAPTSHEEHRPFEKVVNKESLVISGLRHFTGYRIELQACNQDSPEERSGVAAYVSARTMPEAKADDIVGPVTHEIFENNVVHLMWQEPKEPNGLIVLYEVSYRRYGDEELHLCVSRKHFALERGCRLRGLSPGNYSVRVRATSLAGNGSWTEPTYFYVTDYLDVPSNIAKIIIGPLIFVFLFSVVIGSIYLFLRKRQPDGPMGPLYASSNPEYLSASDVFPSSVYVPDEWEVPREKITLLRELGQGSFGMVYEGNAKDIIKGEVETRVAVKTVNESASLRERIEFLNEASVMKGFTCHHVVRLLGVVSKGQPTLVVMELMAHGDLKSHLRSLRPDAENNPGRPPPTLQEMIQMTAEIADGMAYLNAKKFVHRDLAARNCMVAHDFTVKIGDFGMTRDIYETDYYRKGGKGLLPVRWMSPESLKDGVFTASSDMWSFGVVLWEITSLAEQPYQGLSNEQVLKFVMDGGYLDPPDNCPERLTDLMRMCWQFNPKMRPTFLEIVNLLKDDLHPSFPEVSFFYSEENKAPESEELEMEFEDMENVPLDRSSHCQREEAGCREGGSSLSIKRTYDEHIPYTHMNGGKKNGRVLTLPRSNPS

B1: GST-PTP^WT (a fusion of GST with the phosphatase domain I of OST-PTP, rat a.a. 1116-1412) (enzyme)
chain: KELMPYNLWRTHRPIPIHSFRQSYEAKSAHAHQTFFQEFEELKEVGKDQPRLEAEHPDNIIKNRYPHVLPYDHSRVRLTQLPGEPHSDYINANFIPGYSHTQEIIATQGPLKKTLEDFWRLVWEQQVHVIIMLTVGMENGRVLCEHYWPANSTPVTHGHITIHLLAEEPEDEWTRREFQLQHGTEQKQRRVKQLQFTTWPDHSVPEAPSSLLAFVELVQEQVQATQGKGPILVHCSAGVGRTGTFVALLRLLRQLEEEKVADVFNTVYILRLHRPLMIQTLSQYIFLHSCLLNKILE
notes: also called WT OST-PTP; not shown: Glutathione S-transferase (GST) encoded by the vector pGEX 4T3 (Amersham)
  binding result: no binding
